The values below come from publication PMC7037199 (International Journal of Molecular Sciences, 2020).

Values joined by “and” are separate entries in the source; they are usually repeats but may differ in a detail not shown here. Equal values may be shown once.

In data set [1] the target is amyloid-β in whole brain lysates of Tg2576 mice (human). The experiment in a line: non-reducing Tris-Tricine SDS-PAGE with Western blot (SDS-stable bands); whole brain lysates of Tg2576 mice prepared with or without 100 μM TPEN; blots with anti-Aβ (6E10) or anti-apoE; no dithiothreitol or β-mercaptoethanol.
Data set [2] concerns the molecule itself. The data set is described as above.

Regarding “amyloid-β in whole brain lysates of Tg2576 mice (peptide)”, in data set [1], the stoichiometry N was 4 and 3.

B1: apolipoprotein E in whole brain lysates of Tg2576 mice (natural protein, mouse (endogenous in Tg2576 mouse brain), UniProt P08226 19-311, looked up)
chain: EGEPEVTDQLEWQSNQPWEQALNRFWDYLRWVQTLSDQVQEELQSSQVTQELTALMEDTMTEVKAYKKELEEQLGPVAEETRARLGKEVQAAQARLGADMEDLRNRLGQYRNEVHTMLGQSTEEIRARLSTHLRKMRKRLMRDAEDLQKRLAVYKAGAREGAERGVSAIRERLGPLVEQGRQRTANLGAGAAQPLRDRAQAFGDRIRGRLEEVGNQARDRLEEVREHMEEVRSKMEEQTQQIRLQAEIFQARLKGWFEPIVEDMHRQWANLMEKIQASVATNPIITPVAQENQ
notes: Apolipoprotein E endogenous in mouse brain; also called apoE; apoE monomers; source: endogenous, Tg2576 mouse brain lysate
On to B1, for which, in data set [2], the “stoichiometry N” value was 2.
